# T1: Tenascin-R, AP- or Fc-tagged (interactome library) ( (human or mouse sequence …, UniProt Q8BYI9 32-1358))
# T1 construct: In the BLI experiment only the Fc fusion stood, captured from conditioned medium of EXPI293 cells on anti-human Fc sensors; also called TenR; TenR-Fc/AP; source: Expi293 cells, transfected, conditioned medium used without purification; not shown: Fc (human IgG1) in the Fc fusion, C-terminal, kept; alkaline phosphatase (human) in the AP fusion, C-terminal, kept
# T1 sequence (looked up): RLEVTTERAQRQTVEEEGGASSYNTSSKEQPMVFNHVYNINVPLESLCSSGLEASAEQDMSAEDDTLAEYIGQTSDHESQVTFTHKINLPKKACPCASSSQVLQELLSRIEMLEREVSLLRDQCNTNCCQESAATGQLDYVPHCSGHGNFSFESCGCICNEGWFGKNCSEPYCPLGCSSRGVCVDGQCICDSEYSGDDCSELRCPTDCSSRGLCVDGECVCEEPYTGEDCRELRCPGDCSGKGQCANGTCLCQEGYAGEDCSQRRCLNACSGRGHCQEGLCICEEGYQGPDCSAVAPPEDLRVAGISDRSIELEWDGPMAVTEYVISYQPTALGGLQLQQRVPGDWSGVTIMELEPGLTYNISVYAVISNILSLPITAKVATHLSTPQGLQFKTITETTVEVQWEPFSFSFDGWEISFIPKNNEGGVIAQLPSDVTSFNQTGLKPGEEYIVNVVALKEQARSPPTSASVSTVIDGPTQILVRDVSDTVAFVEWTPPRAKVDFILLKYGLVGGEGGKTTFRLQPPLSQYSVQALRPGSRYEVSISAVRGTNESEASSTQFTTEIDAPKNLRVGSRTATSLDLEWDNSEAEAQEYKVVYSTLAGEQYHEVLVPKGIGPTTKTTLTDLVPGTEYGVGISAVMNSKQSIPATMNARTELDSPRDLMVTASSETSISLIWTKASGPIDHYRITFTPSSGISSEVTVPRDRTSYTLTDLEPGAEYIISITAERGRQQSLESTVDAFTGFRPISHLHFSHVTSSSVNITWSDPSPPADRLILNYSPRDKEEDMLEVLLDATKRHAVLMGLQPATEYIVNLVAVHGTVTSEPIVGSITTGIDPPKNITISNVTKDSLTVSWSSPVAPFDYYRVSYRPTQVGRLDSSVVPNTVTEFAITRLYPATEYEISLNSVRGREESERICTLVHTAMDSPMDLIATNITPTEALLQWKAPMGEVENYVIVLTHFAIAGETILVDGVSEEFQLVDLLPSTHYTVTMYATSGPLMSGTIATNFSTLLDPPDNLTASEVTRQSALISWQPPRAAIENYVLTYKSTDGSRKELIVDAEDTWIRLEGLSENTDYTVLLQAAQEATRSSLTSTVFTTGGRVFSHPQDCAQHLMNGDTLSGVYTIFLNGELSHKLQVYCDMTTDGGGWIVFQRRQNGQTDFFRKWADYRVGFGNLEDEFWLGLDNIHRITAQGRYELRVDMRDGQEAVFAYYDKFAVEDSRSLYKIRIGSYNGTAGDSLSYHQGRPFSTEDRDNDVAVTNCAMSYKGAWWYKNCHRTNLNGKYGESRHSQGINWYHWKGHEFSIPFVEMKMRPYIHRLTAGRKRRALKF
# T2: TenR-Fc (Tenascin-R fused to the Fc region of human IgG1) ( (human or mouse sequences …, UniProt Q8BYI9 32-1358))
# T2 construct: Tenascin-R, secreted ECM protein; also called Tenascin-R-Fc; source: EXPI293 cells, transfected, conditioned medium; not shown: Fc (human IgG1), C-terminal, kept
# T2 sequence (looked up): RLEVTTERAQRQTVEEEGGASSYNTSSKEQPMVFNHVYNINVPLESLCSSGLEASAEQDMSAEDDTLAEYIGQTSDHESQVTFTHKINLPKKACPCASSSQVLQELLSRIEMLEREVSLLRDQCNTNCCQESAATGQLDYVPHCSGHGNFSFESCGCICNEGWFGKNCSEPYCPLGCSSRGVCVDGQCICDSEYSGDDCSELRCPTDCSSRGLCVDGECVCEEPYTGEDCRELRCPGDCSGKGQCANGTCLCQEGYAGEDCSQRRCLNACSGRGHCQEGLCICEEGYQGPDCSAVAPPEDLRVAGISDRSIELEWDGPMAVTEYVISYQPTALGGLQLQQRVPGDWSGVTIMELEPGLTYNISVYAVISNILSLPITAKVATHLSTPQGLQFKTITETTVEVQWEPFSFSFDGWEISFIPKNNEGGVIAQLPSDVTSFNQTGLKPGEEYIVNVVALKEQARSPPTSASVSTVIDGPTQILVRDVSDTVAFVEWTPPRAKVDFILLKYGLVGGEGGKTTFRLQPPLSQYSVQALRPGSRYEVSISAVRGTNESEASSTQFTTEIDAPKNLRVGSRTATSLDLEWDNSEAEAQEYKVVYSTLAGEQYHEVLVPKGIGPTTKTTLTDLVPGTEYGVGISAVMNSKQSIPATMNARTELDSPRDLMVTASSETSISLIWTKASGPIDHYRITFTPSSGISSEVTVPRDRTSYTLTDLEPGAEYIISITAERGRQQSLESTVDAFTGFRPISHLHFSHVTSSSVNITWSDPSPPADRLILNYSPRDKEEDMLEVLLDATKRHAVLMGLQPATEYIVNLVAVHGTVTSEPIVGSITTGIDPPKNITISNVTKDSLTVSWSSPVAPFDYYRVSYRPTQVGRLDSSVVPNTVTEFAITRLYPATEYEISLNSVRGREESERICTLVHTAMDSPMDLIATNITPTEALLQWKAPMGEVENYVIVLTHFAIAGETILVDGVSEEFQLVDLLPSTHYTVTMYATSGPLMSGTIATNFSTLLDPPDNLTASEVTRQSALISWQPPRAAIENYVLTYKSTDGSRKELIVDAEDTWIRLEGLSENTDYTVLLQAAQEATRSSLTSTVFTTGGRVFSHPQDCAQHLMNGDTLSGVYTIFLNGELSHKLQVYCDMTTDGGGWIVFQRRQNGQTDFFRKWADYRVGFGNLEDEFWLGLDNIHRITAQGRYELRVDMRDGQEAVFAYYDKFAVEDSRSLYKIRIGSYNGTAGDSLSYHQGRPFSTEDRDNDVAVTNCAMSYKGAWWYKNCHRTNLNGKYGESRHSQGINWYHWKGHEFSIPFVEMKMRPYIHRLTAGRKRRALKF
# Legend:
# [1] = molecular target: T1, Tenascin-R, AP- or Fc-tagged …; assay: BLI; BLItz, RT; TenR-Fc captured from EXPI293 conditioned medium on anti-human Fc sensors; purified IgSF8 34-0.133 µM in twofold dilution; 10 mM Hepes pH 7.4, 150 mM NaCl, 1 mM CaCl2, 0.2% Tween20, 1% BSA; KD from response vs concentration; Fc-only sensor subtracted; conditions: one partner purified
# [2] = molecular target: T2, TenR-Fc (Tenascin-R fused to the Fc …); assay: BLI; BLItz, room temperature; TenR-Fc captured from conditioned medium on anti-human Fc biosensors; purified IgSF8 34-0.133 uM in twofold dilution; association in 10 mM Hepes pH 7.4, 150 mM NaCl, 1 mM CaCl2, 0.2% Tween20, 1% BSA; Fc-only sensor subtracted; binding response against concentration fitted as one site specific binding; conditions: one partner purified
Kd [1] [nM],Kd [2] [nM],Binder
~1400,–,"purified IgSF8 (BLI analyte) (natural protein, Same molecule as Sm1. Secreted ectodomain, likely N-glycosylated; limits by convention (UniProt extracellular domain without the signal peptide).) RQVHVPRGPLYRVAGTAVSISCNVSDYEGPAQQDFEWFMYRPEAPATSLGIVSTKDSQFSYAVFGPRVASGDLQVQRLKGDSVVLKIARLQAQDSGFYECYTPSTDTQYLGNYSAKVELRVLPDELQVSAAPPGPRGRQAATSPSRLTVHEGQELALGCLAQTKTKKHTHLSVSFGRAIPEAPVGRATLQEVVGLRSDMAVEAGAPYAERLASGELRLSKEGTDRYRMVVGGAQAGDSGTYHCTAAEWIQDPDGSWVQVAEKRAVLAHVDVQTLSSQLAVTVGPGERRIGPGEPLELLCNVSGALPPPGRHAAYSVGWEMAPAGAPGPGRLVAQLDTEGIGSLGPGYEDRHIAMEKVASRTYRLRLEAARPADAGTYRCLAKAYVRGSGTRLREAASARSRPLPVHVREEGVVLEAVAWLAGGTVYRGETASLLCNISVRGGPPGLRLAASWWVERPEEGELSSGPAQLVGGVGQDGVAELGVRPGGGPVSVELVGPRSHRLRLHGLGPEDEGIYHCAPSAWVQHADYSWYQAGSARSGPVTVYPYTHAVDT"
–,1390,"IgSF8 (purified IgSF8 protein used as analyte in biolayer interferometry) (receptor, Secreted ectodomain, likely N-glycosylated. Limits are the UniProt extracellular domain without the signal peptide. Mouse is inferred from the mouse IgSF8 cDNA (BC048387) and the mouse IgSF8-His used) RQVHVPRGPLYRVAGTAVSISCNVSDYEGPAQQDFEWFMYRPEAPATSLGIVSTKDSQFSYAVFGPRVASGDLQVQRLKGDSVVLKIARLQAQDSGFYECYTPSTDTQYLGNYSAKVELRVLPDELQVSAAPPGPRGRQAATSPSRLTVHEGQELALGCLAQTKTKKHTHLSVSFGRAIPEAPVGRATLQEVVGLRSDMAVEAGAPYAERLASGELRLSKEGTDRYRMVVGGAQAGDSGTYHCTAAEWIQDPDGSWVQVAEKRAVLAHVDVQTLSSQLAVTVGPGERRIGPGEPLELLCNVSGALPPPGRHAAYSVGWEMAPAGAPGPGRLVAQLDTEGIGSLGPGYEDRHIAMEKVASRTYRLRLEAARPADAGTYRCLAKAYVRGSGTRLREAASARSRPLPVHVREEGVVLEAVAWLAGGTVYRGETASLLCNISVRGGPPGLRLAASWWVERPEEGELSSGPAQLVGGVGQDGVAELGVRPGGGPVSVELVGPRSHRLRLHGLGPEDEGIYHCAPSAWVQHADYSWYQAGSARSGPVTVYPYTHAVDT"

# Reference: article PMC7560607, “Synapse type-specific proteomic dissection identifies IgSF8 as a hippocampal CA3 microcircuit organizer” (Nature Communications, 2020)
